From patent US20250282868A1 (ITEOS BELGIUM, published 2025)
Positions count from the first letter of the chain named.

T1: cynomolgus TREM2 (cynomolgus, UniProt A0A2K5UY34 49-260)
T1 construct: also called cynoTREM2; cTREM2
T1 sequence: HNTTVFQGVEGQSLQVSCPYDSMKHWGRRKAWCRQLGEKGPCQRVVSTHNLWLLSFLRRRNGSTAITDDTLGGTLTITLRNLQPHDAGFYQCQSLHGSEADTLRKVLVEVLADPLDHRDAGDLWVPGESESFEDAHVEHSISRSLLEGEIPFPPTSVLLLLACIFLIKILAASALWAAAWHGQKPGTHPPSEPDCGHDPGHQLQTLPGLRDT

T2: mouse TREM2 (mouse, UniProt Q99NH8 19-227)
T2 construct: whole, on cells
T2 sequence (looked up): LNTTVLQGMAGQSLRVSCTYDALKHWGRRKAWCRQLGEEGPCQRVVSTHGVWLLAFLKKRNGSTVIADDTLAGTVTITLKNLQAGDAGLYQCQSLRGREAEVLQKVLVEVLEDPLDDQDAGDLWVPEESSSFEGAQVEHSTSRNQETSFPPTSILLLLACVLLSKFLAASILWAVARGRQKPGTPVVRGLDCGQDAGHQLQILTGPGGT

T3: human TREM2 (human, UniProt Q9NZC2 19-230)
T3 sequence: T1 sequence with E10A, R60W, F89L, V125F, V157I, P193L, H201Y

B1: Ab52 (antibody, V domains shown)
VH: QVQLVQSGAEVKKPGASVKVSCKASGYTFTSYYIHWVRQAPGQGLEWMGIINPSGGSTSYAQKFQGRVTMTRDTSTSTVYMELSSLRSEDTAVYYCAREADDSSGYPLGLDVWGQGTMVTVSS
VL: EIVMTQSPATLSVSPGERATLSCRASQSVSSNLAWYQQKPGQAPRLLIYGASTRATGIPARFSGSGSGTEFTLTISSLQSEDFAVYYCQQVNSLPPTFGGGTKVEIK
notes: benchmark anti-TREM2 antibody from WO2016023019A2
B2: PN-37012 (antibody, V domains shown)
VH: EVQLLESGGGLVQPGGSLRLSCAASGFTFSNYYMAWVRQAPGKGLEWVSSLTNSGGSTYYADSVKGRFTISRDNSKNTLYLQMNSLRAEDTAVYYCTREWAGSGYFDYWGQGTLVTVSS
VL: DIQMTQSPSSLSASVGDRVTITCKASQNVGNNLAWYQQKPGKAPKLLIYYTSNRFTGVPSRFSGSGSGTDFTLTISSLQPEDFATYYCQRIYNSPWTFGQGTKLEIK
notes: benchmark anti-TREM2 antibody from US20190309064
B3: EOS006176 (antibody, V domains shown)
VH: EVQLLESGGGLVQPGGSLRLSCAASGFTFSTHAMTWVRQAPGKGLEWVSAISANAGKTYYADSVKGRFTISRDNSKNTLYLQMNSLRAEDTAVYYCASLRGGYEVGPTFDSWGQGTLVTVSS
VL: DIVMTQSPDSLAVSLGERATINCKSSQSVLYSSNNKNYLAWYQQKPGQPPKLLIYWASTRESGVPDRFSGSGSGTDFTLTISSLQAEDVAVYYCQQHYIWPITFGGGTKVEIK
B4: EOS006178 (antibody, V domains shown)
VH: B3 VH with T31N, H32Y, A33G, T35G, S111P
VL: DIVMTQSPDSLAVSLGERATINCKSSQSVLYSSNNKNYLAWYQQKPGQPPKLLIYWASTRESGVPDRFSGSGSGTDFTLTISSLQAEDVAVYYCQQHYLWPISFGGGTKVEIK
B5: 6E7 (antibody, V domains shown)
VH: EVQLVQSGAEVKKPGESLKISCKGSGYSFTSYWIAWVRQMPGKGLEWMGIIYPGDSDTRYSPSFQGQVTISADKSISTAYLQWSSLKASDTAMYFCARQRTFYYDSSDYFDYWGQGTLVTVSS
VL: DIQMTQSPSSVSASVGDRVTITCRASQGISSWLAWYQQKPGKAPKLLIYAASSLQNGVPSRFSGSGSGTDFTLTISSLQPEDFATYFCQQADSFPRTFGQGTKLEIK
B6: EOS006171 (antibody, V domains shown)
VH: QVQLVESGGGLVKPGGSLRLSCAASGFTFSDYYMSWIRQAPGKGLEWVSYISSSGSTIYYADSVKGRFTISRDNAKNSLYLQMNSLRAEDTAVYYCARLGGYYSLGPMDVWGQGTTVTVSS
VL: EIVLTQSPATLSLSPGERATLSCRASQSVSSYLAWYQQKPGQAPRLLIYDASNRATGIPARFSGSGSGTDFTLTISSLEPEDFAVYYCQQDSAFPFTFGGGTKVEIK
B7: 14D3 (antibody, V domains shown)
VH: EVKLLEFGGGLVQPGGSMRLSCAASGFTFTDFYMNWIRQPAGRAPEWLGLIRNKTKGYTTEYNRSVKGRFTISRDNTQNMLYLQMNSLRPEDTATYYCARIGVNNGGSLDYWGQGVMVTVSS
VL: DILIIQSPASLTVSAGARVTMSCKSSQSLLYSENNQDYLAWYQQKPGQFPKLLIYGASNRHTGVPDRFTGSGSGTDFTLTISSVQAEDLADYYCEQTYSYPYTFGAGTKLELK

Assays:
[1] = molecular target: T1, cynomolgus TREM2; assay: MFI on CHO cells over-expressing cynoTREM2-DAP12 vs CHO empty vector
Experimental: (§1) Cross-reactivity of anti-TREM2 antibodies to cynomolgus TREM2 (cynoTREM2) was assessed using CHO over-expressing cynoTREM2-DAP12 (Table 22). Benchmark antibodies, AB52 and PN-37012, were examined for comparison.

[2] = molecular target: T2, mouse TREM2; assay: MFI on CT26 cells over-expressing mouse TREM2 and DAP12 vs CT26 empty vector
Experimental: (§2) Cross-reactivity to mouse TREM2 was assessed using CT26 cells over-expressing mouse TREM2 and DAP12 (Table 23). Eight anti-TREM2 antibodies and both benchmark antibodies were considered cross-reactive to mouse TREM2 (MFI higher than isotype control and fold change of CT26-TREM2 over the CT26 Empty Vector higher than 5). The remaining anti-TREM2 antibodies were considered as being low to not cross-reactive (fold change less than 5). EOS006171 was not tested due to clear non-cross-reactivity preliminary data by octet (data not shown).

[3] = molecular target: T1, cynomolgus TREM2; assay: MFI on CHO cells over-expressing cynoTREM2-DAP12
Experimental: as §1

[4] = molecular target: T2, mouse TREM2; assay: MFI on CT26 cells over-expressing mouse TREM2 and DAP12
Experimental: as §2

[5] = molecular target: T3, human TREM2; assay: cell-based or functional assay
[6] = molecular target: T3, human TREM2; assay: flow cytometry, THP-1 WT cells, 10 ug/ml
Experimental: (§3) In order to test specificity of selected antibodies to TREM2, binding was tested by flow cytometry on THP-1 TREM2 KO (clone, produced using CRISPR technology in house) and on THP-1 WT. Cells were incubated with selected anti-TREM2 antibodies (final concentration of 10 μg/ml) for 30 min at 4° C. After washing, bound antibodies were detected with a secondary anti-human IgG Fc PE-labelled for 30 min at 4° C. Fluorescence intensity was measured by flow cytometry.

[7] = molecular target: T3, human TREM2; assay: cell-based or functional assay; remark: listed apart in the source
[8] = molecular target: T3, human TREM2; assay: flow cytometry, M2a-like macrophages
Experimental: (§4) M2a-like macrophages were produced in vitro from monocytes of healthy donors. Briefly, after PBMCs isolation from peripheral blood using Lymphoprep™ gradient, CD14+ cells were purified and seeded in presence of MCSF 50 ng/ml for 6 days. Macrophages were then cultured with IL-13 and IL-4 at a concentration of 20 ng/ml for two additional days and then used for a cell-based binding assay.
(§5) M2a-like macrophages were incubated with anti-TREM2 antibodies (dose-response curve with 11 concentrations from 10 μg/ml to 0.0001 μg/ml) for 30 min at 4° C. After washing, bound antibodies were detected with a secondary anti-human IgG Fc PE-labelled for 30 min at 4° C. Fluorescence intensity was measured by flow cytometry. Equilibrium dissociation constant (kD) was then calculated for each antibody using median MFI normalized over isotype control.

[9] = molecular target: T3, human TREM2; assay: flow cytometry, THP-1 WT vs THP-1 TREM2 KO cells, 10 ug/ml
Experimental: as §3

[10] = molecular target: T3, human TREM2; assay: flow cytometry, M2a-like macrophages, dose-response
Experimental: as §4, §5

| Binder | MFI Fold change (CHO-cTREM2 over CHO-EV) [1] | MFI Fold change (CT26-TREM2 over CT26-EV) [2] | Binding to CHO-cTREM2 MFI [3] | Binding to CT26-TREM2 MFI [4] | Stabilization ratio (Mean of 2 replicates) [5] | Fold over isotype control THP1 WT [6] | Fold over isotype control at 66 nM [7] | pSYK/TotSYK EC50 (nM) [7] | Fold over isotype [8] | MFI Fold change (THP-1 WT over THP-1 TREM2 KO) [9] | Kd [10] |
| --- | --- | --- | --- | --- | --- | --- | --- | --- | --- | --- | --- |
| B1 | 602 fold | 33.6 fold | 25500 MFI | 8810 MFI | – | – | – | – | – | – | – |
| B2 | – | 21 fold | – | 6750 MFI | – | – | – | – | – | – | – |
| B3 | 388 fold | 15 fold | 20400 MFI | 6340 MFI | 0.6 ratio | 2.7 fold | 2.65 fold | 4.05 nM | 13.1 fold | 3.4 fold | – |
| B4 | 334 fold | 15.8 fold | 19700 MFI | 6790 MFI | 0.64 ratio | 2.1 fold | 2.51 fold | 3.89 nM | 5.4 fold | 2.4 fold | – |
| B5 | – | – | – | – | – | – | 1.93 fold | 1.29 nM | – | – | – |
| B6 | 495 fold | – | 13400 MFI | – | 0.46 ratio | 6.6 fold | 2.4 fold | 9.7 nM | – | 4.3 fold | 2.8 nM |
| B7 | – | – | – | – | 0.96 ratio | – | – | – | – | – | – |
